Measured values from the supplement of paper PMC11246515.
± gives the standard deviation of the averaged measurements.

Experiment: total protein half-life in vivo (active degradation + dilution); higher = more stable protein
[1] = E. coli NCM3722 delta-clpP delta-lon delta-hslV, growth: N-lim chemostat, doubling time 6 h
[2] = E. coli NCM3722 delta-clpP, growth: N-lim chemostat, doubling time 6 h
[3] = E. coli NCM3722 delta-hslV, growth: N-lim chemostat, doubling time 6 h
[4] = E. coli NCM3722 delta-lon, growth: N-lim chemostat, doubling time 6 h
[5] = E. coli NCM3722 delta-smpB, growth: N-lim chemostat, doubling time 6 h
[6] = wild type E. coli NCM3722, growth: C-lim chemostat, doubling time 3 h
[7] = wild type E. coli NCM3722, growth: C-lim chemostat, doubling time 6 h
[8] = wild type E. coli NCM3722, growth: C-lim chemostat, doubling time 12 h
[9] = wild type E. coli NCM3722, growth: N-lim chemostat, doubling time 6 h
[10] = wild type E. coli NCM3722, growth: N-lim chemostat, doubling time 12 h
[11] = wild type E. coli NCM3722, growth: P-lim chemostat, doubling time 6 h
[12] = wild type E. coli NCM3722, growth: P-lim chemostat, doubling time 12 h

MMVIRPVERSDVSALMQLASKTGGGLTSLPANEATLSARIERAIKTWQGELPKSEQGYVFVLEDSETGTVAGICAIEVAVGLNDPWYNYRVGTLVHASKELNVYNALPTLFLSNDHTGSSELCTLFLDPDWRKEGNGYLLSKSRFMFMAAFRDKFNDKVVAEMRGVIDEHGYSPFWQSLGKRFFSMDFSRADFLCGTGQKAFIAELMPKHPIYTHFLSQEAQDVIGQVHPQTAPARAVLEKEGFRYRNYIDIFDGGPTLECDIDRVRAIRKSRLVEVAEGQPAQGDFPACLVANENYHHFRVVLVRTDPATERLILTAAQLDALKCHAGDRVRLVRLCAEEKTA [P0AE37]
total protein half-life in vivo [1]: 5.43 ± 0.59 h
total protein half-life in vivo [2]: 2.85 ± 0.19 h
total protein half-life in vivo [3]: 2.96 ± 0.92 h
total protein half-life in vivo [4]: 2.88 ± 0.041 h
total protein half-life in vivo [5]: 2.78 ± 0.33 h
total protein half-life in vivo [6]: 2.58 ± 0.12 h
total protein half-life in vivo [7]: 4.56 ± 0.31 h
total protein half-life in vivo [8]: 9.68 ± 2.2 h
total protein half-life in vivo [9]: 2.452 ± 0.0032 h
total protein half-life in vivo [10]: 3.22 ± 0.69 h
total protein half-life in vivo [11]: 4.07 ± 0.25 h
total protein half-life in vivo [12]: 9.08 ± 0.78 h

MLRLLEEKIATPLGPLWVICDEQFRLRAVEWEEYSERMVQLLDIHYRKEGYERISATNPGGLSDKLREYFAGNLSIIDTLPTATGGTPFQREVWKTLRTIPCGQVMHYGQLAEQLGRPGAARAVGAANGSNPISIVVPCHRVIGRNGTMTGYAGGVQRKEWLLRHEGYLLL [P0AFH0]
total protein half-life in vivo [1]: 5.81 ± 0.46 h
total protein half-life in vivo [2]: 4.8 ± 0.28 h
total protein half-life in vivo [3]: 6.05 ± 1.3 h
total protein half-life in vivo [5]: 3.86 ± 0.21 h
total protein half-life in vivo [6]: 2.61 h
total protein half-life in vivo [7]: 5.29 ± 0.24 h
total protein half-life in vivo [8]: 10.4 ± 0.61 h
total protein half-life in vivo [9]: 4.55 ± 0.71 h
total protein half-life in vivo [10]: 7.793 ± 0.026 h
total protein half-life in vivo [11]: 5.07 ± 0.087 h
total protein half-life in vivo [12]: 8.9 ± 0.66 h

MKRNLLSSAIIVAIMSLGLTGCDDKKAETETLPPANSQPAAPAPEAKPTEAPVAKAEAKPETPAQPVVDEQAVFDEKMDVYIKCYNKLQIPVQRSLARYADWLKDFKQGPTGEERTVYGIYGISESNLAECEKGVKSAVALTPALQPIDGVAVSYIDAAVALGNTINEMDKYYTQENYKDDAFAKGKTLHQTFLKNLEAFEPVAESYHAAIQEINDKRQLAELKNIEEREGKTFHYYSLAVMISAKQINNLISQDKFDAEAAMKKVSELETLVAQAKEADKGGMNFSFINSAGQYQLEAKKYVRRIRDKVPYSDWDKEQLQDANSSWMVEDSFPRALREYNEMVDDYNSLR
total protein half-life in vivo [1]: 6 h
total protein half-life in vivo [5]: 5.67 ± 0.5 h
total protein half-life in vivo [7]: 6.58 h
total protein half-life in vivo [9]: 6.45 h
total protein half-life in vivo [10]: 10.5 h
total protein half-life in vivo [11]: 5.81 ± 0.094 h
total protein half-life in vivo [12]: 10 h

MEKGTVKWFNNAKGFGFICPEGGGEDIFAHYSTIQMDGYRTLKAGQSVQFDVHQGPKGNHASVIVPVEVEAAVA [P0A968]
total protein half-life in vivo [1]: 2.08 h
total protein half-life in vivo [2]: 1.11 ± 0.089 h
total protein half-life in vivo [3]: 0.144 h
total protein half-life in vivo [6]: 0.333 ± 0.022 h
total protein half-life in vivo [7]: 0.386 h
total protein half-life in vivo [8]: 0.224 h

MAISIKGVNTGVIRKSNNFIALALKIKEPRNKESLFFMSVMELRDLLIALESRLHQKHKLDAAAHLQYEQARDKVIKKMAENIPEILVDELKNADINRRVNTLELTDNQGENLTFVLTLHDGSKCELVVNELQIEMLARAIIHAINNAEMRELALRITSLLDFLPLYDVDCQDNGNLEYDTYSQPEWKHNLFDHYLAVLYRFKDESGKEQFSGAVVKTREATPGKEIEAITRRMLDFSPRLKKLAGVPCQVYVRTVAANNAQPLTQDQCLRALHHLRVQSTSKTAPQAK
total protein half-life in vivo [1]: 5.19 ± 0.073 h
total protein half-life in vivo [5]: 2.7 ± 0.24 h
total protein half-life in vivo [6]: 2.52 ± 0.14 h
total protein half-life in vivo [7]: 4.83 ± 1.6 h

MLPDSSVRLNKYISESGICSRREADRYIEQGNVFLNGKRATIGDQVKPGDVVKVNGQLIEPREAEDLVLIALNKPVGIVSTTEDGERDNIVDFVNHSKRVFPIGRLDKDSQGLIFLTNHGDLVNKILRAGNDHEKEYLVTVDKPITEEFIRGMSAGVPILGTVTKKCKVKKEAPFVFRITLVQGLNRQIRRMCEHFGYEVKKLERTRIMNVSLSGIPLGEWRDLTDDELIDLFKLIENSSSEVKPKAKAKPKTAGIKRPVVKMEKTAEKGGRPASNGKRFTSPGRKKKGR
total protein half-life in vivo [1]: 6.01 ± 1.2 h
total protein half-life in vivo [2]: 3.751 ± 0.021 h
total protein half-life in vivo [3]: 3.44 ± 0.14 h
total protein half-life in vivo [4]: 5.61 ± 0.41 h
total protein half-life in vivo [5]: 3.43 ± 0.087 h
total protein half-life in vivo [6]: 2.2 ± 0.11 h
total protein half-life in vivo [7]: 4.11 ± 0.4 h
total protein half-life in vivo [8]: 5.93 ± 0.93 h
total protein half-life in vivo [9]: 3.29 ± 0.094 h
total protein half-life in vivo [10]: 5.37 ± 0.073 h
total protein half-life in vivo [11]: 2.59 ± 0.18 h
total protein half-life in vivo [12]: 5.07 ± 0.21 h

MRRTFTAEEKASVFELWKNGTGFSEIANILGSKPGTIFTMLRDTGGIKPHERKRAVAHLTLSEREEIRAGLSAKMSIRAIATALNRSPSTISREVQRNRGRRYYKAVDANNRANRMAKRPKPCLLDQNLPLRKLVLEKLEMKWSPEQISGWLRRTKPRQKTLRISPETIYKTLYFRSREALHHLNIQHLRRSHSLRHGRRHTRKGERGTINIVNGTPIHERSRNIDNRRSLGHWEGDLVSGTKNSHIATLVDRKSRYTIILRLRGKDSVSVNQALTDKFLSLPSELRKSLTWDRGMELARHLEFTVSTGVKVYFCDPQSPWQRGTNENTNGLIRQYFPKKTCLAQYTQHELDLVAAQLNNRPRKTLKFKTPKEIIERGVALTD [P0CF90]
total protein half-life in vivo [1]: 5.45 ± 0.8 h
